Test results: the supplement of paper PMC7877785
± gives the uncertainty stated by the source.

Experiment: self-splicing fitness, log relative to wild type (ln ratio); higher = more splicing; Tetrahymena group I intron in knt gene, E. coli kanamycin selection, DiMSum; sequences stand for … in CUCUCU…GGAGGGAAAAGUUAUCAGGCAUGCACCUGGUAGCUAGUCUUUAAACCAAUAGAUUGCAUCGGUUUAAAAGGCAAGACCGUCAAAUUGCGGGAAAGGGGUCAACAGCCGUUCAGUACCAAGUCUCAGGGGAAACUUUGAGAUGGCCUUGCAAAGGGUAUGGUAAUAAGCUGACGGACAUGGUCCUAACCACGCAGCCAAGUCCUAAGUCAACAGAUCUUCUGUUGAUAUGGAUGCAGUUCACAGACUAAAUGUCGGUCGGGGAAGAUGUAUUCUUCUCAUAAGAUAUAGUCGGACCUCUCCUUAAUGGGAGCUAGCGGAUGAAGUGAUGCAACACUGGAGCCGCUGGGAACUAAUUUGUAUGCGAAAGUAUAUUGAUUAGUUUUGGAGUACUCGUGGUCG
How it was run: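 Library with all eight P1ex-region intron nucleotides randomised, intron inside the knt kanamycin-resistance gene on pET-22b(+), in E. coli BL21(DE3). Cells grew overnight at 37°C or 30°C on LB agar with or without 25 μg/mL kanamycin (plus 100 μg/mL carbenicillin, 50 μM IPTG, 0.2% rhamnose), in six replicate transformations. Pooled colonies were amplicon-sequenced on Illumina HiSeq 2500. DiMSum fitness is the error-weighted combination of wild-type-normalised replicate fold changes, kanamycin versus none.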

| Sequence | self-splicing fitness (ln) (30 °C) | self-splicing fitness (ln) (37 °C) |
| --- | --- | --- |
| UUAUAGCAAUAUUACGGGGC | -2.88 ± 0.34 | – |
| UUAUAGCAAUAUUACGUACC | -3.97 ± 0.31 | -3.01 ± 0.3 |
| UUAUAGCAAUAUUACGUAUC | -3.79 ± 0.31 | -3.04 ± 0.32 |
| UUAUAGCAAUAUUACGUAUU | – | -2.08 ± 0.25 |
| UUAUAGCAAUAUUACGUCAU | – | -2.98 ± 0.37 |
| UUAUAGCAAUAUUACGUCUU | -3.35 ± 0.3 | -0.948 ± 0.17 |
| UUAUAGCAAUAUUACGUGCG | -1.06 ± 0.15 | -0.395 ± 0.17 |
| UUAUAGCAAUAUUACGUGCU | -2.75 ± 0.16 | -1.91 ± 0.14 |
| UUAUAGCAAUAUUACGUUCA | -0.931 ± 0.15 | 0.00672 ± 0.15 |
| UUCAAGCAAUAUUACGAAUA | -2.07 ± 0.18 | -0.837 ± 0.12 |
| UUCAAGCAAUAUUACGACGC | -1.27 ± 0.19 | -1.14 ± 0.26 |
| UUCAAGCAAUAUUACGAGAA | -1.84 ± 0.3 | -1.61 ± 0.37 |
| UUCAAGCAAUAUUACGAGGC | -1.97 ± 0.21 | -1.76 ± 0.23 |
| UUCAAGCAAUAUUACGAGUU | -2.6 ± 0.12 | -0.389 ± 0.099 |
| UUCAAGCAAUAUUACGCACC | – | -1.68 ± 0.49 |
| UUCAAGCAAUAUUACGGAAU | – | -2.57 ± 0.23 |
| UUCAAGCAAUAUUACGGACU | -2.76 ± 0.17 | -0.504 ± 0.13 |
| UUCAAGCAAUAUUACGGUUU | -3.08 ± 0.21 | -1.84 ± 0.17 |
| UUCAAGCAAUAUUACGUAAG | -1.89 ± 0.074 | -0.866 ± 0.077 |
| UUCAAGCAAUAUUACGUAGA | -1.5 ± 0.094 | -0.928 ± 0.14 |
| UUCAAGCAAUAUUACGUAUC | -4.16 ± 0.24 | -1.85 ± 0.16 |
| UUCAAGCAAUAUUACGUCCG | -1.33 ± 0.095 | -0.121 ± 0.14 |
| UUCAAGCAAUAUUACGUUCA | -0.938 ± 0.077 | -0.12 ± 0.077 |
| UUCCAGCAAUAUUACGAAUG | -3.59 ± 0.19 | -1.75 ± 0.15 |
| UUCCAGCAAUAUUACGAAUU | -3.98 ± 0.18 | -2.05 ± 0.14 |

| Sequence | self-splicing fitness (ln) (30 °C) | self-splicing fitness (ln) (37 °C) |
| --- | --- | --- |
| UUCCAGCAAUAUUACGACAG | -1.39 ± 0.17 | -0.449 ± 0.18 |
| UUCCAGCAAUAUUACGCGGG | -3.83 ± 0.29 | -2.69 ± 0.29 |
| UUCCAGCAAUAUUACGCUGC | -3.79 ± 0.28 | -2.09 ± 0.4 |
| UUCCAGCAAUAUUACGGAGA | -1.83 ± 0.084 | -0.628 ± 0.081 |
| UUCCAGCAAUAUUACGGCCC | -2.34 ± 0.38 | – |
| UUCCAGCAAUAUUACGGCUA | 0.12 ± 0.12 | -0.25 ± 0.1 |
| UUCCAGCAAUAUUACGGGAG | -3.38 ± 0.16 | -1.77 ± 0.14 |
| UUCCAGCAAUAUUACGGGUG | -0.109 ± 0.058 | -0.15 ± 0.076 |
| UUCCAGCAAUAUUACGUACA | -1.11 ± 0.1 | -0.862 ± 0.12 |
| UUCCAGCAAUAUUACGUCAG | -1.75 ± 0.077 | -1.19 ± 0.097 |
| UUCCAGCAAUAUUACGUCCG | -2.28 ± 0.18 | 0.24 ± 0.2 |
| UUCCAGCAAUAUUACGUCUG | -2.71 ± 0.15 | -2.28 ± 0.24 |
| UUCCAGCAAUAUUACGUCUU | -2.64 ± 0.15 | -2.27 ± 0.2 |
| UUCCAGCAAUAUUACGUGGA | -3.28 ± 0.24 | -2.95 ± 0.26 |
| UUCCAGCAAUAUUACGUUUA | -0.628 ± 0.083 | -0.59 ± 0.075 |
| UUCGAGCAAUAUUACGACCA | -2.28 ± 0.43 | -1.33 ± 0.28 |
| UUCGAGCAAUAUUACGACUA | 0.544 ± 0.39 | -1.15 ± 0.24 |
| UUCGAGCAAUAUUACGAGGU | -2.94 ± 0.48 | -1.52 ± 0.43 |
| UUCGAGCAAUAUUACGCAUG | -1.2 ± 0.23 | -2.21 ± 0.3 |
| UUCGAGCAAUAUUACGCUCC | -3.27 ± 0.41 | – |
| UUCGAGCAAUAUUACGCUGC | -3.44 ± 0.44 | – |
| UUCGAGCAAUAUUACGGCCC | -1.75 ± 0.4 | – |
| UUCGAGCAAUAUUACGGGAG | -3.53 ± 0.2 | -2.84 ± 0.22 |
| UUCGAGCAAUAUUACGGGGU | -2.88 ± 0.35 | – |
| UUCGAGCAAUAUUACGGUAC | -3.39 ± 0.27 | -2.62 ± 0.44 |

| Sequence | self-splicing fitness (ln) (30 °C) | self-splicing fitness (ln) (37 °C) |
| --- | --- | --- |
| UUCGAGCAAUAUUACGGUUG | -3.78 ± 0.19 | -2.47 ± 0.16 |
| UUCGAGCAAUAUUACGUGCA | -2.18 ± 0.19 | -1.4 ± 0.16 |
| UUCGAGCAAUAUUACGUGCG | -3.18 ± 0.23 | -2.18 ± 0.26 |
| UUCGAGCAAUAUUACGUGUG | -2.52 ± 0.13 | -1.59 ± 0.12 |
| UUCGAGCAAUAUUACGUUAG | -4.22 ± 0.42 | -3.37 ± 0.3 |
| UUCGAGCAAUAUUACGUUGA | -2.77 ± 0.26 | -2 ± 0.21 |
| UUCUAGCAAUAUUACGAACC | – | -1.8 ± 0.33 |
| UUCUAGCAAUAUUACGAACG | -3.61 ± 0.36 | -1.15 ± 0.27 |
| UUCUAGCAAUAUUACGACGU | -1.89 ± 0.12 | -1.12 ± 0.1 |
| UUCUAGCAAUAUUACGACUC | -3.11 ± 0.31 | -0.392 ± 0.14 |
| UUCUAGCAAUAUUACGAGAA | -2.54 ± 0.29 | -2.11 ± 0.29 |
| UUCUAGCAAUAUUACGAGCA | -0.992 ± 0.089 | -0.124 ± 0.085 |
| UUCUAGCAAUAUUACGAUAG | – | -2.05 ± 0.36 |
| UUCUAGCAAUAUUACGAUCU | -2.84 ± 0.34 | -2.52 ± 0.27 |
| UUCUAGCAAUAUUACGAUGC | -2.12 ± 0.3 | -2.86 ± 0.38 |
| UUCUAGCAAUAUUACGAUUG | -3.24 ± 0.31 | -1.94 ± 0.21 |
| UUCUAGCAAUAUUACGCAAU | -2.27 ± 0.22 | -2.21 ± 0.32 |
| UUCUAGCAAUAUUACGCACC | -2.54 ± 0.18 | -1.94 ± 0.23 |
| UUCUAGCAAUAUUACGCAGA | -2.04 ± 0.32 | -1.1 ± 0.23 |
| UUCUAGCAAUAUUACGCGUA | -1.15 ± 0.25 | -0.575 ± 0.21 |
| UUCUAGCAAUAUUACGCGUU | -2.47 ± 0.15 | -1.9 ± 0.13 |
| UUCUAGCAAUAUUACGCUCU | -1.9 ± 0.15 | -1.77 ± 0.15 |
| UUCUAGCAAUAUUACGCUUG | -4.24 ± 0.33 | -2.67 ± 0.22 |
| UUCUAGCAAUAUUACGGAGG | -3.17 ± 0.34 | – |
| UUCUAGCAAUAUUACGGAUC | -2.3 ± 0.21 | -0.989 ± 0.31 |

| Sequence | self-splicing fitness (ln) (30 °C) | self-splicing fitness (ln) (37 °C) |
| --- | --- | --- |
| UUCUAGCAAUAUUACGGCGA | -0.698 ± 0.14 | 0.493 ± 0.18 |
| UUCUAGCAAUAUUACGGGAU | -3.72 ± 0.29 | -2.37 ± 0.3 |
| UUCUAGCAAUAUUACGGUCG | -0.638 ± 0.067 | 0.00892 ± 0.09 |
| UUCUAGCAAUAUUACGGUCU | – | -3.7 ± 0.36 |
| UUCUAGCAAUAUUACGGUUU | -2.05 ± 0.11 | -1.52 ± 0.12 |
| UUCUAGCAAUAUUACGUAAC | -3.19 ± 0.33 | -1.32 ± 0.27 |
| UUCUAGCAAUAUUACGUAGU | – | -1.6 ± 0.24 |
| UUCUAGCAAUAUUACGUAUA | -1.28 ± 0.19 | -0.787 ± 0.25 |
| UUCUAGCAAUAUUACGUUGU | -3.15 ± 0.16 | -2.75 ± 0.18 |
| UUGAAGCAAUAUUACGAAGG | -1.42 ± 0.13 | -0.248 ± 0.17 |
| UUGAAGCAAUAUUACGACAA | 0.222 ± 0.087 | 0.511 ± 0.12 |
| UUGAAGCAAUAUUACGAGCA | -0.381 ± 0.12 | 0.224 ± 0.14 |
| UUGAAGCAAUAUUACGCCAU | -1.71 ± 0.086 | -1.56 ± 0.12 |
| UUGAAGCAAUAUUACGCCGC | – | -2.1 ± 0.43 |
| UUGAAGCAAUAUUACGCGGA | -1.12 ± 0.12 | -0.506 ± 0.14 |
| UUGAAGCAAUAUUACGCUCC | -4.04 ± 0.29 | -3.02 ± 0.31 |
| UUGAAGCAAUAUUACGGAAU | -3.36 ± 0.14 | -1.15 ± 0.12 |
| UUGAAGCAAUAUUACGGACU | 0.0826 ± 0.16 | 0.0377 ± 0.12 |
| UUGAAGCAAUAUUACGGCGU | -0.215 ± 0.11 | 0.00688 ± 0.13 |
| UUGAAGCAAUAUUACGUCGU | -1.04 ± 0.074 | -0.397 ± 0.11 |
| UUGAAGCAAUAUUACGUGUA | -1.7 ± 0.053 | -1.25 ± 0.074 |
| UUGCAGCAAUAUUACGAUGU | -3.3 ± 0.16 | -3.09 ± 0.3 |
| UUGCAGCAAUAUUACGAUUU | -2.64 ± 0.14 | -1.22 ± 0.13 |
| UUGCAGCAAUAUUACGCAAU | -3.95 ± 0.42 | -1.86 ± 0.14 |
| UUGCAGCAAUAUUACGCCCG | -0.555 ± 0.18 | -1.07 ± 0.18 |
